Assay results published in patent US20110150888A1 (Amgen, published 2011).
Residue numbers refer to the chain shown, from its start. Numbers in names are those of the source. Blank lines part the entries; values can stand above or below the binder they belong to.

Columns and labels:
[1] = biological target: T1, human hepcidin (mature, 25 amino acids) (human, mono-biotinylated in the ELISAs and on the KinExA beads (site not stated); unlabelled in solution and on the BIAcore chip); assay: ELISA, mono-biotinylated human hepcidin on Neutravidin plate, pH 7.4
T1 construct: the form is named in each assay field; also called rhuHepc; rhHepc
T1 peptide: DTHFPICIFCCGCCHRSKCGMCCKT
Protocol: (§1) Differential pH binding of the antibodies listed above in Table 3 was then determined by ELISA. 50 μL of Neutravidin (Pierce) at 8 μg/mL in 1×PBS was coated upon a Nunc Maxisorp 384-well plate, and incubated at 37° C. for 1 hr. After blocking the wells with 0.1% BSA/PBS/0.05% Tween20 for 1 hour at room temperature, plates were washed six times with PBS/0.05% Tween20. 25 μL of mono-biotinylated hepcidin at 50 ng/mL in 0.1% BSA/PBS/0.05% Tween20 was added to the 384-well plate, and incubated at room temperature for 1 hour. The plates were next washed six times with PBS/0.05% Tween20. Starting hepcidin antibody concentrations were normalized to 1 μg/mL for pH 5.5 and 6.0 conditions and to 100 ng/mL for pH 7.4 conditions. The hepcidin antibodies were serially diluted 3-fold in PBS/1% NFDM pH 7.4 and 4-fold in PBS/1% NFDM pH 6.0 and 5.5. The dilutions and titrations were performed in polypropylene 96-well dilution plates, and then were transferred in duplicate to a Neutravidin-coated 384-well plate. The biotinylated hepcidin and antibodies were incubated for 2 hours at room temperature. The plate was next washed six times with PBS/0.05% Tween20. 25 μL it of goat anti-huIgG-horseradish peroxidase at a 1:7000 dilution in 0.1% BSA/PBS/0.05% Tween20 was next added to each well of the assay plate. The plate was finally washed six times in PBS/0.05% Tween20. Enhanced K-Blue 3,3′,5,5′-Tetramethylbenzidine (TMB) Substrate (Neogen) was added and the reaction stopped using 1 M H₃PO₄ after 10 minutes of incubation at room temperature. The absorption was measured at 450 nm on a plate reader. Binding data were analyzed by non-linear regression analysis (sigmoidal dose-response, variable slope) to generate EC₅₀ values using GraphPad Prism® software. […] Double combinations of these mutants were made.

[2] = biological target: T1, human hepcidin (mature, 25 amino acids); assay: ELISA, mono-biotinylated human hepcidin on Neutravidin plate, pH 6.0
Protocol: as §1

[3] = biological target: T1, human hepcidin (mature, 25 amino acids); assay: ELISA, mono-biotinylated human hepcidin on Neutravidin plate, pH 6.0 against pH 7.4
Protocol: as §1

[4] = biological target: T1, human hepcidin (mature, 25 amino acids); assay: ELISA, mono-biotinylated human hepcidin on Neutravidin plate, pH 5.5
Protocol: as §1

[5] = biological target: T1, human hepcidin (mature, 25 amino acids); assay: KinExA solution equilibrium, human hepcidin-coated beads
Protocol: SA-Sepharose beads were pre-coated with biotinylated human hepcidin (SEQ ID NO: 9) and blocked with BSA according to manufacturer's instructions. Antibodies and hepcidin were diluted in PBS/0.1% BSA/0.05% NaN₃ buffer. Fixed concentrations of antibodies 15E1, 15E1 W52H, 15E1 A99H, 15E1 N521-1, 15E1 A107H and 18B11 were incubated with various concentrations of human hepcidin at room temperature for 8 hours before being run through the human hepcidin-coated beads. The amount of the bead-bound antibody was quantified by fluorescently (Cy5)-labeled goat anti-murine-IgG (H+L) antibody (Jackson Immuno Research, West Grove, Pa.). The binding signal is proportional to the concentration of free antibody at equilibrium. Dissociation equilibrium constant (KD) was obtained from nonlinear regression of the competition curves using a dual-curve one-site homogeneous binding model (KinExATM Pro software).

[6] = biological target: T1, human hepcidin (mature, 25 amino acids); assay: BIAcore, recombinant human hepcidin immobilised on a CM5 chip, 50 nM antibody bound at pH 7.4, dissociation buffers of pH 7.4, 6 and 5.5 (curves not labelled by pH)
Protocol: Off-rate analysis of dissociation at different pHs was also performed. A slow off-rate is expected to predict increased binding interaction over a longer period of time, while a faster off-rate is expected to predict decreased binding interaction. For example, a faster off-rate at lower pH is expected to predict greater release of antigen at lower pH. Solution equilibrium binding analysis was performed using BIAcore to study the off-rates of antibodies 1S1, 1S3, 2.7, 18B11, 23F11 and 26F11 with recombinant human hepcidin (SEQ ID NO: 9).
Immobilization of recombinant human hepcidin (rhuHepc) to a BIAcore sensor chip surface was performed according to manufacturer's instructions at a flow rate 10 μL/min of running buffer (DPBS: Dulbecco's Phosphate Buffer Salinel X, no CaCl or MgCl, with 0.005% Biacore surfactant P-20). The carboxylated matrix of the sensor chip was first activated with a 60 μL injection of a mixture containing 0.2 M EDC(N-ethyl-N-(dimethylamine-propyl)carbodiimide in water, from BIAcore) and 0.05M NHS (N-hydroxysuccinimide in water, from Biacore). 55 μL of recombinant human hepcidin (1 μg/ml in 10 mM Na-acetate pH4.0) was injected to immobilize onto the sensor chip. The excess reactive groups of the sensor chip were deactivated with an injection of 60 μL of ethanolamine (1.0M, from Biacore).
After rhuHepc was immobilized on the CM5 chip with low density, 50 nM of antibodies 1S1, 1S3, 2.7, 18B11, 23F11 and 26F11 were injected over and bound the rhuHepc surface at pH 7.4. Dissociation buffers with pH 7.4, pH6 and pH 5.5 were run over the bound surface. The dissociation curves were obtained.

Kd [5]: 3 nM
EC50 [1]: 1.8 ng/mL
EC50 [2]: 4 ng/mL
fold increase in EC50 as the pH was lowered to 6.0 [3]: ≥ 1.5 fold
EC50 [4]: 3.2 ng/mL
B3: 15E1 N57H (antibody, V domains shown)
VH: QVQLVESGGGVVQPGRSLRLSCAASGFTFSSYGMHWVRQAPGKGLEWVAVIWYAESHKYYADSVKGRFTISRDNSKNTLYLQMNSLRAEDTAVYYCARAQEGIAPDAFDIWGQGTMVTVSS
VL: SYELTQPPSVSVSPGQTATITCSGDKLGERYACWYQQRPGQSPVLVIYQDSKRPSGIPERFSGSNSGNTATLTISGTQAMDEADYFCQAWYSSTNVLFGGGTKLTVL
notes: Histidine mutant of 15E1, transiently expressed in 293-6E cells; constant regions as in wild-type 15E1; also called N57H (heavy chain)

EC50 [1]: 7.3 ng/mL
EC50 [2]: 75.6 ng/mL
fold increase in EC50 as the pH was lowered to 6.0 [3]: ≥ 5.5 fold
B4: 15E1 N57H A107H (antibody, V domains shown)
VH: B3 VH with A107H
VL: B3 VL
notes: Double histidine mutant of 15E1; constant regions as in wild-type 15E1; also called A107H (heavy chain)/N57H (heavy chain)

binding result [6]: binds
B6: antibody 26F11 (antibody, V domains shown)
VH: B3 VH with S31N, A54V, E55G, H57N, I103M
VL: B3 VL with T19S, L27M, R38K, V44I, S51T, F86Y, L97V
notes: Human antibody

EC50 [1]: 4.5 ng/mL
EC50 [2]: 6.5 ng/mL
fold increase in EC50 as the pH was lowered to 6.0 [3]: ≥ 1.5 fold
EC50 [4]: 8 ng/mL
B8: 15E1 L27H (antibody, V domains shown)
VH: B3 VH with H57N
VL: B3 VL with L27H
notes: Histidine mutant of 15E1, transiently expressed in 293-6E cells; constant regions as in wild-type 15E1; also called L27H (light chain)

The remaining lines, values behind:

B1: 15E1 A89H (antibody, V domains shown)
VH: B3 VH with H57N
VL: B3 VL with A89H
notes: Histidine mutant of 15E1, transiently expressed in 293-6E cells; constant regions as in wild-type 15E1; also called A89H (light chain)
EC50 [1]: 5.4 ng/mL
EC50 [2]: 10.6 ng/mL
fold increase in EC50 as the pH was lowered to 6.0 [3]: ≥ 1.5 fold
EC50 [4]: 12 ng/mL

B2: 15E1 A99H A107H (antibody, V domains shown)
VH: B3 VH with H57N, A99H, A107H
VL: B3 VL
notes: Double histidine mutant of 15E1; constant regions as in wild-type 15E1; also called A107H (heavy chain)/A99H (heavy chain)
EC50 [1]: 3 ng/mL
EC50 [2]: 5.5 ng/mL
fold increase in EC50 as the pH was lowered to 6.0 [3]: ≥ 5.5 fold
EC50 [4]: 16.1 ng/mL

B5: 15E1 A107H A89H (antibody, V domains shown)
VH: B3 VH with H57N, A107H
VL: B3 VL with A89H
notes: Double histidine mutant of 15E1 (one change in each chain); constant regions as in wild-type 15E1; also called A107H (heavy chain)/A89H (light chain)
EC50 [1]: 6 ng/mL
EC50 [2]: 34.7 ng/mL
fold increase in EC50 as the pH was lowered to 6.0 [3]: ≥ 5.5 fold

B7: 15E1 A107H (antibody, V domains shown)
VH: B3 VH with H57N, A107H
VL: B3 VL
notes: Histidine mutant of 15E1, transiently expressed in 293-6E cells; constant regions as in wild-type 15E1; also called A107H (heavy chain)
Kd [5]: 0.031 nM
EC50 [1]: 2 ng/mL
EC50 [2]: 3.6 ng/mL
fold increase in EC50 as the pH was lowered to 6.0 [3]: ≥ 1.5 fold
EC50 [4]: 3.7 ng/mL

B9: 15E1 A107H L27H (antibody, V domains shown)
VH: B3 VH with H57N, A107H
VL: B3 VL with L27H
notes: Double histidine mutant of 15E1 (one change in each chain); constant regions as in wild-type 15E1; also called A107H (heavy chain)/L27H (light chain)
EC50 [1]: 4.3 ng/mL
EC50 [2]: 19.3 ng/mL
fold increase in EC50 as the pH was lowered to 6.0 [3]: ≥ 5.5 fold
EC50 [4]: 316 ng/mL
